Experimental data: patent publication US20180362643A1 (Amgen, published 2018)
Ends that are not written are not given here.

T1: PACAP38 peptide fragment 27-38 (human, ends and bridges not checked)
T1 construct: also called peptide No. 6
T1 peptide: LGKRYKQRVKNK

T2: PACAP38 peptide fragment 6-36 (human)
T2 construct: also called peptide No. 12
T2 peptide: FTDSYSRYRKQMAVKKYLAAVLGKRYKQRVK

T3: human PACAP27 (human, not fully specified)
T3 peptide: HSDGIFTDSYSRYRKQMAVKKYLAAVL

T4: PACAP38 peptide fragment 26-33 (human)
T4 construct: also called peptide No. 2
T4 peptide: VLGKRYKQ

T5: PACAP38 peptide fragment 6-35 (human)
T5 construct: also called peptide No. 4
T5 peptide: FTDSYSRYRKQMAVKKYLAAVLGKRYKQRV

T6: PACAP38 peptide fragment 14-38 (human, not fully specified)
T6 construct: also called peptide No. 7
T6 peptide: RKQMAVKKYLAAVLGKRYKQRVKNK

T7: PACAP38 peptide fragment 11-27 (human)
T7 construct: also called peptide No. 8
T7 peptide: SRYRKQMAVKKYLAAVL

T8: PACAP38 peptide fragment 4-27 (human)
T8 construct: also called peptide No. 9
T8 peptide: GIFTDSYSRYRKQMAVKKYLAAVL

T9: full-length human PACAP38 (human, not fully specified)
T9 peptide: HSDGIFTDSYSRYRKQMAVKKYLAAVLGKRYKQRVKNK

T10: PACAP38 peptide fragment 34-38 (human, ends and bridges not checked)
T10 construct: also called peptide No. 17; RVKNK
T10 peptide: RVKNK

T11: amino terminal PACAP38 peptide (amino acids 1-13) (human)
T11 construct: also called N-terminal Peptide; N-terminal PACAP peptide
T11 peptide: HSDGIFTDSYSRY


Experiments:
[1] = target: T1, PACAP38 peptide fragment 27-38; test: SPR (Biacore 3000), solution competition with the peptide for antibody binding to immobilised full-length PACAP38; % inhibition
Protocol: (§1) The binding epitopes of anti-PACAP antibodies were evaluated by using the Biacore 3000 biosensor-based instrument (GE Healthcare USA). The Biacore 3000 instrument utilizes surface plasmon resonance (SPR) technology to measure mass increase on the sensor-chip surface. The binding interactions are measured in real-time and recorded as Response Units (RU). Each binding profile (cycle) is stored in a “sensorgram” in real-time. Generally, Biacore technology entails immobilizing a ligand of interest on to a flow-cell of the sensor-chip via a coupling chemistry. The analyte (e.g. putative binding partner to the ligand of interest) is injected across the immobilized ligand allowing it to bind to the ligand-immobilized surface. The magnitude of the response is directly proportional to the mass increase on the immobilized surface due to the binding of the analyte.
(§2) In this experiment, various peptide fragments of PACAP38 were incubated with each of the six antibodies (mAb1, mAb2, mAb3, mAb4, mAb5, and mAb6) described in Example 2 and evaluated for their ability to inhibit binding of the antibodies to full-length PACAP38 immobilized on the sensor-chip. The binding epitopes for each of the antibodies were deduced from the set of peptides that were able to inhibit the binding of each antibody to full-length PACAP38.
(§3) Each of the six anti-PACAP antibodies was incubated at a 1:200 molar ratio (Ab: peptide fragment) with each of the peptide fragments in Table 9 at an ambient temperature for 2 hours prior to analysis. […] A second control containing 6.5 nM antibody was prepared in sample diluent to be used as the untreated control sample for each antibody. Full-length PACAP38, buffer, and each peptide fragment were also tested to evaluate non-specific binding to the immobilized PACAP38 surface.

[2] = target: T2, PACAP38 peptide fragment 6-36; test: SPR (Biacore 3000), solution competition: antibody pre-incubated 2 h with the peptide at 1:200 molar ratio (Ab:peptide), then injected over immobilised full-length PACAP38; readout % inhibition of antibody binding (filing counts >50 % as reactive)
Protocol: as §1, §2, §3

human PACAP27 [3] = target: T3, human PACAP27; test: cell-based or functional assay
[4] = target: T4, PACAP38 peptide fragment 26-33; test: SPR (Biacore 3000) solution competition against immobilised PACAP38
[5] = target: T1, PACAP38 peptide fragment 27-38; test: as above
[6] = target: T5, PACAP38 peptide fragment 6-35; test: SPR (Biacore 3000) solution competition: antibody pre-incubated 1:200 with the fragment, then injected over immobilised PACAP38
Protocol: as §2, §3

[7] = target: T6, PACAP38 peptide fragment 14-38; test: as above
Protocol: as §2, §3

[8] = target: T7, PACAP38 peptide fragment 11-27; test: as above
Protocol: as §2, §3

[9] = target: T8, PACAP38 peptide fragment 4-27; test: as above
Protocol: as §2, §3

[10] = target: T9, full-length human PACAP38; test: cell-based or functional assay
[11] = target: T10, PACAP38 peptide fragment 34-38; test: SPR (Biacore 3000) solution competition: antibody pre-incubated 1:200 with the fragment, then injected over immobilised PACAP38
Protocol: as §2, §3

human PACAP27 [12] = target: T3, human PACAP27; test: SPR (Biacore 3000), solution competition with the peptide for antibody binding to immobilised full-length PACAP38; % inhibition
Protocol: as §1, §2, §3

[13] = target: T11, amino terminal PACAP38 peptide (amino …); test: as above
Protocol: as §1, §2, §3

[14] = target: T5, PACAP38 peptide fragment 6-35; test: as above
Protocol: as §1, §2, §3

[15] = target: T7, PACAP38 peptide fragment 11-27; test: as above
Protocol: as §1, §2, §3

[16] = target: T8, PACAP38 peptide fragment 4-27; test: as above
Protocol: as §1, §2, §3

[17] = target: T2, PACAP38 peptide fragment 6-36; test: as above
Protocol: as §1, §2, §3

[18] = target: T1, PACAP38 peptide fragment 27-38; test: SPR (Biacore 3000), solution competition: antibody pre-incubated 2 h with the peptide at 1:200 molar ratio (Ab:peptide), then injected over immobilised full-length PACAP38; readout % inhibition of antibody binding (filing counts >50 % as reactive)
Protocol: as §1, §2, §3

Row | binding result [2] | IC50: inhibition of PACAP27 (10 pM)-induced activation of human PAC1 receptor, cAMP assay in SH-SY5Y (CRL-2266) cells, POC versus antibody concentration (human PACAP27 [3]) | binding result [6] | binding result [7] | binding result [8] | binding result [9] | IC50, inhibition of PACAP38-induced activation of the PAC1 receptor (cAMP assay, CRL-2266 cells) [10] | potency relative to PAC1 Ab, inhibition of PACAP38-induced PAC1 receptor activation (cAMP assay) [10] | binding result [11] | binding result [18] | Binder | binding result [1] | binding result [4] | binding result [5] | binding result (human PACAP27 [12]) | binding result [13] | binding result [14] | binding result [15] | binding result [16] | binding result [17]
1 | binds |  |  |  |  |  |  |  |  |  | mAb6 (antibody, V domains shown, Rabbit monoclonal antibody (SLAM), recombinant; also called monoclonal anti-PACAP antibody 6; 6 (c55)) VH: QLEESGGGLVQPGASLTLTCTTSGFSLSDNYLCWVRQAPGRGLEWVACIGIVLRSTGATYYASWAEGRFTISKTSPTTVTLEMTSLTAADTATYFCALDLGYGGPLWGPGTLVTVSS VL: AQVLTQTPASVSAAVGGTVTINCQASQSVYNNKNLAWYQQKPGQPPKLLIYFSSTLASGVPSRFRGSGSGTQFTLTISGVQCGDAATYYCLGEFGSIWAFGGGTEVVVKG | no binding (tested: 1:200 molar ratio (Ab:peptide)) |  |  |  |  |  |  |  | 
2 | binds | 41 nM | binds | binds | binds | binds |  |  |  |  | mAb5 (antibody, V domains shown, Rabbit monoclonal antibody (SLAM), recombinant; also called monoclonal anti-PACAP antibody 5; 5 (c71)) VH: QSVEESGGRLVTPGTPLTLTCTVSGFSLSTYNMCWVRQAPGKGLEWVGFINSDDSAYYASWAKGRFTFSKTSTTVDLKIASPTTEDTATYFCARYDWDYYYSRLDLWGPGTLVTVSS VL: DIVLTQTPASVSAAVGGTVSISCQSSESVYNNNYLSWFQQKPGQPPKLLIYGASTLASGVPSRFEGSGSGTQFTLTISDVQCDDAATYYCLGDYIIIENIFGGGTEVVVKG |  | no binding (tested: 1:200 molar ratio (Ab: peptide fragment)) | no binding (tested: 1:200 molar ratio (Ab: peptide fragment)) |  |  |  |  |  | 
3 |  |  |  |  |  |  | < 1 nM | ~10 fold | binds | binds | mAb2 (antibody, V domains shown, Rabbit monoclonal antibody (SLAM), recombinant; also called monoclonal anti-PACAP antibody 2; 2 (c81)) VH: QSLEESGGGLVQPEGSLTLTCTASGFSFNSSSYMCWVRQAPGKGLEWIGCIFTGSSGNTYYATWAQGRFTISKTSTTVTLEMTSLTAADTATYFCARDRAYFLVGYFYATYYFDLWGPGTLVTVSS VL: DVVMTQTPSPVSAQVGGTVTINCQASESIDSDLSWYQQKPGQPPKLLIYRTFTLESGVPSRFKGSGSGTDYTLTISDLECADAAIYYCQCTDGSSISGSYGWDAFGGGTEVVVKG |  |  |  | no binding (tested: 1:200 molar ratio (Ab:peptide)) | no binding (tested: 1:200 molar ratio (Ab:peptide)) | no binding (tested: 1:200 molar ratio (Ab:peptide)) | no binding (tested: 1:200 molar ratio (Ab:peptide)) | no binding (tested: 1:200 molar ratio (Ab:peptide)) | no binding (tested: 1:200 molar ratio (Ab:peptide))
